Experimental data published in article PMC4046507 (2014).

Molecular target: T1, proteolipoprotein (PLP), substituted analog peptide on I-Ag7 (mouse, substituted analog of PLP 56-70 carrying lysine for tyrosine at positions 57 and 59 (residues worked out from the printed peptide and this description; the analog's own residues are not given))
T1 peptide: DKEKLINVIHAFQYV
Test: cytokine release

binding result: recognises
B1: Th2-derived TCRαβ transgenic receptor (TRAV17 TRAJ50 / TRBV31 TRBJ2-3) (TCR)
alpha TRAV17 TRAJ50 CDR3: CALEGIASSSFSKLVF
beta TRBV31 TRBJ2-3 CDR3: CAWSLGGGAETLYF
